Molecular target: clathrin triskelia (clathrin heavy chain, CHC) purified from rat liver (UniProt P11442)
Test: GST pull-down, CHC
Conditions: sites S558

binding against the reference (reference: wild-type CID treated with Aurora A) | binding against the reference (reference: wild type treated with Aurora A) | Substance
weaker |  | TACC3 clathrin interaction domain (CID), 522-577 (from UniProt Q9Y6A5) S558A CID treated with Aurora A
 | weaker | TACC3 (from UniProt Q9Y6A5) S558A treated with Aurora A
